Read-outs that look alike come from different tables or passages of the source.
Tests used:
DR5-Fc fusion protein [1] = target: DR5-Fc fusion protein (UniProt O14763); assay: ELISA, coated DR5-Fc, anti-human Fab-HRP
DR5-Fc fusion protein [2] = target: DR5-Fc fusion protein (UniProt O14763); assay: ELISA, coated DR5-Fc, anti-human Fab-HRP; remark: listed apart in the source

EC50 (DR5-Fc fusion protein [1]): 1.4 nM
EC50 (DR5-Fc fusion protein [2]): 1.2 nM
Substance: Drozitumab (antibody)

— patent US20210002376A1
